Tested on: peptide library, one residue held at a place counted from the Y acceptor
Test: relative phosphorylation of the sub-library (ratio to the mean residue at this position); higher = residue favoured
Method in brief: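 Every value reflects phosphorylation relative to the mean randomized residue. The sum of the 18 randomized residues, or 16 in the Ser/Thr-free library, served to normalize intensities at each position, which were then multiplied by that number. Intensities came from phosphorimaging with ImageQuant of biotinylated Tyr-centred peptides captured on streptavidin membranes after 90 min with purified recombinant kinases and 50 μM ATP plus γ-32P-ATP.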

FER, construct: aa-541-end, human, sequence (P16591 whole entry, looked up): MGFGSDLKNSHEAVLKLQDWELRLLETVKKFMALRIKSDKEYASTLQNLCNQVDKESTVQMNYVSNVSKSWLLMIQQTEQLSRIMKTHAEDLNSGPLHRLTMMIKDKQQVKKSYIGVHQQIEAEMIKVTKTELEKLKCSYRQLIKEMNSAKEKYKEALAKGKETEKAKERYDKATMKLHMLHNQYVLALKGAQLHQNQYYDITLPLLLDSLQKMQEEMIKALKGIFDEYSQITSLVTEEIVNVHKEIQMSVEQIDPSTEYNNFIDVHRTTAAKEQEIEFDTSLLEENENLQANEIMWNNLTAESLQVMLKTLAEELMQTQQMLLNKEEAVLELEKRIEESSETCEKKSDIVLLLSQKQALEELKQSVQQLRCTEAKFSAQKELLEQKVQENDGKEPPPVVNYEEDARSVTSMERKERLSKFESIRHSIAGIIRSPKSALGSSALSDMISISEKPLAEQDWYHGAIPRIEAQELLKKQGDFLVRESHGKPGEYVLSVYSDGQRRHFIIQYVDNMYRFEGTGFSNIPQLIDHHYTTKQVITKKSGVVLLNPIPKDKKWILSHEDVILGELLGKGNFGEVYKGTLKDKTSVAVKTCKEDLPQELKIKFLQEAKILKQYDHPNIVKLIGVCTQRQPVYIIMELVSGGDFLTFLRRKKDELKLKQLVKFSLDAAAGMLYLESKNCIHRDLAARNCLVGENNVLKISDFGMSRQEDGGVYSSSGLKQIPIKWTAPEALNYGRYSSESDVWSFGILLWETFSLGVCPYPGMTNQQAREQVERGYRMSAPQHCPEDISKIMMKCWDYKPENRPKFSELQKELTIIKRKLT

FER, construct: aa-541-end, human (from UniProt P16591)
relative phosphorylation
Settings | at +1 | at +2 | at +3 | at +4 | at +5 | at -1 | at -2 | at -3 | at -4 | at -5
A fixed | 1.7 | 0.886 | 0.866 | 0.927 | 1.07 | 0.942 | 1 | 0.818 | 1.1 | 1.05
D fixed | 1.32 | 0.911 | 0.521 | 0.838 | 0.592 | 1.12 | 1.15 | 1.29 | 1.31 | 1.22
E fixed | 2.5 | 1.28 | 0.611 | 1.42 | 0.604 | 1.19 | 1.48 | 1.74 | 1.62 | 1.13
F fixed | 0.517 | 1.27 | 1.41 | 1.11 | 1.29 | 1.45 | 0.696 | 0.988 | 1.05 | 0.972
G fixed | 1.24 | 0.645 | 0.606 | 0.94 | 0.882 | 0.427 | 1.09 | 1.1 | 1.12 | 1.17
H fixed | 0.647 | 0.83 | 1.93 | 1.12 | 0.933 | 1.52 | 1.1 | 1.07 | 0.885 | 0.982
I fixed | 0.832 | 1.03 | 1.73 | 0.911 | 1.14 | 1.85 | 0.934 | 0.804 | 0.92 | 1.01
K fixed | 0.31 | 0.646 | 0.36 | 0.941 | 0.58 | 0.357 | 0.735 | 0.617 | 0.798 | 0.831
L fixed | 0.71 | 1.15 | 1.06 | 0.874 | 1.31 | 1.43 | 0.916 | 0.84 | 0.958 | 0.977
M fixed | 0.969 | 0.973 | 1.12 | 1.29 | 1.08 | 1.06 | 0.76 | 1.01 | 0.93 | 1.06
N fixed | 0.751 | 1.18 | 0.836 | 0.923 | 0.708 | 0.983 | 1.26 | 1.35 | 0.973 | 1.12
P fixed | 0.323 | 0.867 | 0.89 | 0.873 | 2.09 | 1.05 | 1.05 | 0.971 | 1.08 | 1.02
Q fixed | 1.48 | 0.878 | 0.658 | 1.11 | 0.846 | 0.73 | 1.18 | 0.859 | 1.14 | 1.05
R fixed | 0.35 | 0.737 | 0.547 | 1.12 | 0.721 | 0.309 | 0.901 | 0.762 | 0.757 | 0.898
S fixed | 1.42 | 0.917 | 0.82 | 0.766 | 0.999 | 0.619 | 1.1 | 1 | 0.794 | 0.849
T fixed | 1.14 | 0.96 | 0.839 | 0.775 | 1.05 | 0.866 | 0.932 | 0.997 | 0.664 | 0.824
V fixed | 1.13 | 0.929 | 1.34 | 0.922 | 1.19 | 1.29 | 0.897 | 0.788 | 0.825 | 0.807
W fixed | 0.667 | 1.91 | 1.86 | 1.14 | 0.931 | 0.809 | 0.824 | 0.981 | 1.07 | 1.04
pThr fixed | 1.55 | 1.12 | 0.721 | 0.549 | 0.543 | 1.14 | 1.18 | 1.26 | 1.2 | 1.09
pTyr fixed | 2 | 1.26 | 1.01 | 0.849 | 0.471 | 3.56 | 1.58 | 1.81 | 1.63 | 1.13

— the supplement of paper PMC11136658
